This assay addresses T1, GDF5 homodimer (human) (UniProt P43026).
T1 sequence: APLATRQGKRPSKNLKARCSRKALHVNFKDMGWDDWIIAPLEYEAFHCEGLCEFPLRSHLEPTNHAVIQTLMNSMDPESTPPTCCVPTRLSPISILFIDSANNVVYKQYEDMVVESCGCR

Noggin, sequence (Q13253 28-232): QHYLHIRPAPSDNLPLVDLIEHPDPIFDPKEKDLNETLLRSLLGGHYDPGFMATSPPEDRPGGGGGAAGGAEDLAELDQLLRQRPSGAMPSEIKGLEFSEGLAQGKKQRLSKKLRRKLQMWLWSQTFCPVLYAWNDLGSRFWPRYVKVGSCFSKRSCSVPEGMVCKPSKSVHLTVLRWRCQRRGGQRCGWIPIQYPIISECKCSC

The substance “Gremlin-2 (from UniProt O88273 22-168) (natural protein)” came in with an IC50 of inhibition of signalling by 5 nM GDF5, luciferase reporter in BRITER osteoblast cells of 38 nM. The same measure for “Noggin (from UniProt Q13253 28-232) (natural protein)”: 42 nM.

For the origin of these results see paper PMC9893541.
